B1: LINE1-full (parent)
chain: UACGUAGGUGGUUUUCCCCUGAUAGUGCUAAGGGGGCCUGGAAGUUUGGACUGGGCAGAGCUCAACACAGCGUGGCAAAGUGGCUGUGGCUAGACUGCCUCUCUGGAUUCCUCGUCACUCAGCAGGGCAUCUCUGAGAGAAAUGCC

Variants of: B1
Test: self-cleavage, relative activity (ratio to wild type); higher = more cleavage; in vitro, sequencing; the parent is a self-cleaving ribozyme

Variant | self-cleavage
G89A A92U | 0.07
U85C G139A | 0.2
U91C A136G | 0.8
U85C G89A | 0.03
U87C A121U | 0.2
G89A A140G | 0.06
G86A U112A | 0.08
U91C U102C | 0.4
U87G A94U | 0.13
U87A G97U | 0.08
U87A G126U | 0.08
U87C U100C | 0.26
U87C U100A | 0.1
U87C C90U | 0.07
U85G U134C | 0.16
U91C C110G | 0.58
C90G A129G | 0.04
G88A C146U | 0.07
U91A A138G | 0.84
U91A A92U | 1.33
U91A A92G | 0.16
U87A G114A | 0.05
G86A U91C | 0.07
U87C G106A | 0.21

Variant | self-cleavage
U87C G106U | 0.26
U85C A138G | 0.17
U85C A138U | 0.13
U85A U100A | 0.05
U91C C98A | 0.06
G86A U102C | 0.18
C90A U96C | 0.04
U85C U112C | 0.18
U85C U112A | 0.19
C90G A142G | 0.05
U87C A136C | 0.16
U87C A136G | 0.24
G89A A117U | 0.04
U87C U143C | 0.21
U87C U143A | 0.22
G89A U132C | 0.06
G88C U132C | 0.09
C90U U119C | 0.03
U91A U104A | 0.46
C90U U112A | 0.04
C90U U112C | 0.03
G86A U108A | 0.02
U87A A121U | 0.09
U87A A121G | 0.1

Variant | self-cleavage
U91A A136U | 0.54
U91A A136G | 0.36
G86A A141U | 0.13
U85C U100C | 0.28
G89U A142G | 0.03
U87G U115A | 0.24
G89A A121G | 0.09
U85G U143C | 0.13
U91C U112A | 0.42
U91C C113A | 0.82
U87G U130C | 0.41
U91C A138G | 1.98
C90U G93U | 0.04
U87C U132C | 0.19
G89A U91C | 0.05
G89A A107G | 0.01
G86A U134C | 0.08
C90U | 0.03
C90G | 0.03
C90A | 0.04
G89C A138G | 0.07
U85G | 0.13
U85C | 0.18
U87C | 0.22

Variant | self-cleavage
U87A | 0.08
U87G | 0.21
U85C C95U | 0.06
U85A U102C | 0.13
G88A U100A | 0.07
U91C A142G | 0.73
U87C C120A | 0.18
U85C G122A | 0.14
U85G A94G | 0.36
G88A A136G | 0.07
G89A C133U | 0.03
G88U U100C | 0.04
U85C U104A | 0.08
U85C U104C | 0.18
U85A U134G | 0.12
U87C G97A | 0.12
U87C G122U | 0.3
G89U G93A | 0.04
U87C A117C | 0
U87C A117G | 0.41
U87C A117U | 0.19
C90U U134G | 0.04
G89C U119A | 0.02
U85C U96C | 0.2

Variant | self-cleavage
U85C U96A | 0.07
U91C A94G | 0.15
U91C A94U | 0.2
G86A U119A | 0.16
G89A G137A | 0.05
U87A C113A | 0.06
U91A G144A | 0.88
U85G U109C | 0
U85G C128U | 0.39
G86A U109G | 0.07
U87A A129U | 0.08
U87C A138G | 0.28
U87C U91G | 0.08
G86U A129U | 0.09
G88A U104C | 0.15
G86U | 0.1
G86A | 0.08
G86C | 0.06
U91A U102C | 0.22
G88U U104C | 0.05
U85C G93U | 0.06
U91C U96A | 0.08
C90U A94U | 0.04
G88C G125C | 0.06

Variant | self-cleavage
G89A U143A | 0.05
G89A U112C | 0.05
U87C U112C | 0.23
U87C U112A | 0.16
G89C A124G | 0.08
U87G A117G | 0
G86U U100C | 0.16
C90A A141G | 0.03
U85C G144U | 0.19
U87A A124U | 0.08
U85C U87A | 0.07
U85C U87C | 0.04
G89U A124G | 0.16
U91A A129U | 0.86
U91A U100C | 0.96
G88A C110U | 0.04
G86A A140G | 0.03
G89C G122C | 0.02
U87A U115G | 0.13
C90U U130C | 0.04
U87A U100C | 0.09
U91G A121G | 0.33
U85C U108C | 0.22
U91C U143C | 0.78

Variant | self-cleavage
U91C U143G | 0.62
U91C U143A | 0.72
U91C U100C | 0.48
U91A A142G | 0.63
G88A U143A | 0.07
U91C C101U | 0.69
U85G A140G | 0.19
U91A U96A | 0.04
U87G U104A | 0.2
U85C C118U | 0.1
G88A U130C | 0.01
G88A G122A | 0.07
U91C U104A | 0.34
U91C U104C | 1.15
U91A A117U | 0.6
U85A U132A | 0.08
U87G A121U | 0.2
C90G U102C | 0.01
U85A U109C | 0.07
U85A U109A | 0.06
U85A U104C | 0.13
U85A U104A | 0.03
U85A U104G | 0.02
